Three molecules from publication PMC5362245, “Depletion of Arabidopsis SC35 and SC35-like serine/arginine-rich proteins affects the transcription and splicing of a subset of genes” can be followed below.

Series [1] concerns the target T1, SCL30 (UniProt Q8L3X8 1-262).
T1 sequence: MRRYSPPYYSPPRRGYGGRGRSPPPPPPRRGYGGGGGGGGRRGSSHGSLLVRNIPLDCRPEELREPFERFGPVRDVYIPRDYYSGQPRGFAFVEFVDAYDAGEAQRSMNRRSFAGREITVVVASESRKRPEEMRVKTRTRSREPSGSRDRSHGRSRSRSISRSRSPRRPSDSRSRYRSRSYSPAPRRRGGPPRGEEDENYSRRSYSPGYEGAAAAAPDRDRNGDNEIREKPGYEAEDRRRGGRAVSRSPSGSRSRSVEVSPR
Description: EMSA; 2 ug tRNA, 10 nM labeled RNA; 20 ul, 2 ug tRNA, 10 nM biotin-RNA, LightShift Chemiluminescent RNA EMSA kit buffer (salt and pH not stated), 30 min room temperature; 6% native PAGE in 0.5x TBE. The following applies: protein: recombinant; tags: His; label: 5' biotin. For orientation: Mobility shift assays separate free from complexed probe on a gel.

The target in series [2] is T1, SCL30. The series is described as follows: competition; 0.625-5 uM unlabeled RNA vs 10 nM N1, 0.4 ug SCL30; labeled binding abolished at 5 uM; 20 ul, 2 ug tRNA, 10 nM biotin-RNA, LightShift Chemiluminescent RNA EMSA kit buffer (salt and pH not stated), 30 min room temperature; 6% native PAGE in 0.5x TBE. The following applies: protein: recombinant; tags: His; label: none.

For series [3], the target named is T1, SCL30. Description: competition; mutated probe failed to compete with N1; 20 ul, 2 ug tRNA, 10 nM biotin-RNA, LightShift Chemiluminescent RNA EMSA kit buffer (salt and pH not stated), 30 min room temperature; 6% native PAGE in 0.5x TBE. The following applies: protein: recombinant; tags: His.

B1: AT1G53250 AGAAGA RNA probe (ssRNA)
RNA: AGAUUAAAGAAGAGGAAAGGAGAAGG
For the molecule B1, in series [1], the binding result is recorded as “binds”.

B2: AT1G53250 RNA, unlabeled competitor (ssRNA)
RNA: AGAUUAAAGAAGAGGAAAGGAGAAGG
In the case of B2, the binding result in series [2] is on record as “binds”.

B3: AT1G53250 mutated RNA probe (AGAAGA to UCUUCU) (ssRNA)
RNA: AGAUUAAUCUUCUGGAAAGGAGAAGG
B3: the binding result in series [3] is “no binding”.
